From patent US20150246959A1 (US Dept. of Health and Human Services, published 2015)
Numbering of substitutions follows the chain as printed. Numbers in names are those of the source. Blank lines part the entries; values can stand above or below the binder they belong to.

Target: MAGE-A3 full-length protein processed and presented by HLA-DP4 on cells (human)
Test: cell-based or functional assay

Chain of MAGE-A3 full-length protein processed and presented by HLA-DP4 on cells (human) (P20036 29-260, chain 1 of 2): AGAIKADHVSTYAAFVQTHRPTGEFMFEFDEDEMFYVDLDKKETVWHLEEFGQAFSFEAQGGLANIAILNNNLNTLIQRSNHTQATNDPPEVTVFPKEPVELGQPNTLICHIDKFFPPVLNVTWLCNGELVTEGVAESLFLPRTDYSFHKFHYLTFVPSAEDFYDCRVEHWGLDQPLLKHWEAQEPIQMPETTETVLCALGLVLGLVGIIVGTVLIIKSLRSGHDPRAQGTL
Chain of MAGE-A3 full-length protein processed and presented by HLA-DP4 on cells (human) (P43357 whole entry, chain 2 of 2, further chain): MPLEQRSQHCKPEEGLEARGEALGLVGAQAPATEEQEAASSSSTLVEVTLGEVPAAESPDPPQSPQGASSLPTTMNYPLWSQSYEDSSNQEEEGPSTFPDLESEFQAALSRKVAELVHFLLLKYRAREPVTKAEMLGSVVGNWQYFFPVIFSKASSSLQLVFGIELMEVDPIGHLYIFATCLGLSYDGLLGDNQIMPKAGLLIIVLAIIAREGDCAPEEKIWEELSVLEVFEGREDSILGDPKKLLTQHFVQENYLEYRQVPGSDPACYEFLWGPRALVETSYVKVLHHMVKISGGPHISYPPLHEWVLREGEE

fold increase in anti-tumor activity (IFN-gamma) against wt 6F9 TCR, CD4+ enriched PBL: ~2 fold
B1: a1 substituted 6F9 TCR (alpha chain S116A) (TCR, V domains shown)
V domain 1: QTVTQSQPEMSVQEAETVTLSCTYDTSESDYYLFWYKQPPSRQMILVIRQEAYKQQNATENRFSVNFQKAAKSFSLKISDSQLGDAAMYFCALRASGTYKYIFGTGTRLKVLA
V domain 2: GAGVSQSPSNKVTEKGKDVELRCDPISGHTALYWYRQSLGQGLEFLIYFQGNSAPDKSGLPSDRFSAERTGGSVSTLTIQRTQQEDSAVYLCASIRTGPFFSGNTIYFGEGSWLTVVE

fold increase in anti-tumor activity (IFN-gamma) against wt 6F9 TCR, CD4+ enriched PBL: ~2 fold
B2: a2 substituted 6F9 TCR (alpha chain S117A) (TCR, V domains shown)
V domain 1: B1 V domain 1 with A95S, S96A
V domain 2: B1 V domain 2
